Results from patent US20240000834A1, “RAS MUTANT EPITOPE PEPTIDE AND T CELL RECEPTOR RECOGNIZING RAS MUTANT” (SHANGHAI GENBASE BIOTECHNOLOGY CO., LTD., priority 2020, published 2024).
Residue numbers refer to the chain shown, from its start. Blank lines part the entries; values can stand above or below the binder they belong to.

Columns and labels:
[1] = target: T1, RAS G12V mutant (KRAS G12V) peptide on HLA-DPB1*03:01 (human); experiment: Jurkat-NFAT-Luc; B13 LCL + G12V peptide, 10 µg/ml, 10-fold dilutions, 5 conc.; Emax relative to WT 275%; full-length, on cells
T1 peptide: TEYKLVVVGAVGV
Experimental: (§1) In the above table, those with a higher ratio of TCR Mut RLU/WT RLU were underlined, which were preferred TCR mutants. The Emax and EC50 (Functional Avidity) of these TCR mutants in recognition of the KRAS-G12V antigen peptide were further determined. B13 LCL cells were loaded with different concentrations of G12V antigen peptide (10 μg/ml, 10-fold dilution, 5 concentrations), and co-incubated with Jurkat-NFAT-Luc cells expressing the TCR mutants for 16-24 hours, the fluorescence signal expression was detected by adding ONE Glo Luciferase, and the results were shown in FIG. 8 and the table below.

[2] = target: T1, RAS G12V mutant (KRAS G12V) peptide on …; experiment: Jurkat-NFAT-Luc; B13 LCL + G12V peptide, 10 µg/ml, 10-fold dilutions, 5 conc.; Emax relative to WT 192%; full-length, on cells
Experimental: as §1

[3] = target: T1, RAS G12V mutant (KRAS G12V) peptide on …; experiment: Jurkat-NFAT-Luc; B13 LCL + G12V peptide, 10 µg/ml, 10-fold dilutions, 5 conc.; Emax relative to WT 125%; full-length, on cells
Experimental: as §1

[4] = target: T1, RAS G12V mutant (KRAS G12V) peptide on …; experiment: Jurkat-NFAT-Luc; SW620-DPB + G12V peptide, 10 µg/ml, 10-fold dilutions, 5 conc.; Emax relative to WT 82%; full-length, on cells
Experimental: (§2) In the above table, those with TCR Mut RLU/WT RLU ratio ≥80% were underlined, which were the preferred TCR mutants. The Emax and EC50 (Functional Avidity) of the TCR mutants to recognize the KRAS-G12V antigen peptide were further determined. SW620-DPB cells (SW620 expressing HLA-DPB1*03:01) were loaded with different concentrations of G12V antigen peptide (10 μg/ml, 10-fold dilution, 5 concentrations), and co-incubated with Jurkat-NFAT-Luc cells expressing the TCR mutants for 16-24 hours, and the fluorescence signal expression was detected by adding ONE Glo Luciferase.

[5] = target: T1, RAS G12V mutant (KRAS G12V) peptide on …; experiment: Jurkat-NFAT-Luc + B13 LCL loaded with T15; vs wild-type B13.14.1; mTCRβ 94.90%; full-length, on cells
Experimental: (§3) The TCR mutant (MHC-II binding region) lentiviral vector was transduced into the Jurkat-NFAT-Luc cell line, and B13 LCL cells loaded with KRAS-G12V antigen (RAS G12V-T15 peptide, SEQ ID NO: 5) were used as the antigen-presenting cells. 2×10⁴ TCR-T and 2×10⁴ antigen-loaded B13 LCL cells were co-cultured for 16-24 hours, the fluorescence signal expression was detected by adding ONE Glo Luciferase, and TCR Mut RLU/WT RLU (ratio of RLU signal value of TCR mutant to RLU signal value of wild-type B13.14.1TCR) was calculated.

[6] = target: T1, RAS G12V mutant (KRAS G12V) peptide on …; experiment: Jurkat-NFAT-Luc; B13 LCL + G12V peptide, 10 µg/ml, 10-fold dilutions, 5 conc.; Emax relative to WT 94%; full-length, on cells
Experimental: as §1

[7] = target: T1, RAS G12V mutant (KRAS G12V) peptide on …; experiment: Jurkat-NFAT-Luc; SW620-DPB + G12V peptide, 10 µg/ml, 10-fold dilutions, 5 conc.; Emax relative to WT 106%; full-length, on cells
Experimental: as §2

[8] = target: T1, RAS G12V mutant (KRAS G12V) peptide on …; experiment: Jurkat-NFAT-Luc; SW620-DPB + G12V peptide, 10 µg/ml, 10-fold dilutions, 5 conc.; Emax relative to WT 78%; full-length, on cells
Experimental: as §2

[9] = target: T1, RAS G12V mutant (KRAS G12V) peptide on …; experiment: Jurkat-NFAT-Luc + B13 LCL loaded with T15; vs wild-type B13.14.1; mTCRβ 89.00%; full-length, on cells
Experimental: as §3

[10] = target: T1, RAS G12V mutant (KRAS G12V) peptide on …; experiment: Jurkat-NFAT-Luc; SW620-DPB + G12V peptide, 10 µg/ml, 10-fold dilutions, 5 conc.; Emax relative to WT 180%; full-length, on cells
Experimental: as §2

[11] = target: T1, RAS G12V mutant (KRAS G12V) peptide on …; experiment: Jurkat-NFAT-Luc; SW620-DPB + G12V peptide, 10 µg/ml, 10-fold dilutions, 5 conc.; Emax relative to WT 134%; full-length, on cells
Experimental: as §2

[12] = target: T1, RAS G12V mutant (KRAS G12V) peptide on …; experiment: Jurkat-NFAT-Luc + B13 LCL loaded with T15; vs wild-type B13.14.1; mTCRβ 95.20%; full-length, on cells
Experimental: as §3

[13] = target: T1, RAS G12V mutant (KRAS G12V) peptide on …; experiment: Jurkat-NFAT-Luc; SW620-DPB + G12V peptide, 10 µg/ml, 10-fold dilutions, 5 conc.; Emax relative to WT 131%; full-length, on cells
Experimental: as §2

[14] = target: T1, RAS G12V mutant (KRAS G12V) peptide on …; experiment: Jurkat-NFAT-Luc; SW620-DPB + G12V peptide, 10 µg/ml, 10-fold dilutions, 5 conc.; Emax relative to WT 111%; full-length, on cells
Experimental: as §2

[15] = target: T1, RAS G12V mutant (KRAS G12V) peptide on …; experiment: Jurkat-NFAT-Luc; B13 LCL + G12V peptide, 10 µg/ml, 10-fold dilutions, 5 conc.; Emax relative to WT 140%; full-length, on cells
Experimental: as §1

[16] = target: T1, RAS G12V mutant (KRAS G12V) peptide on …; experiment: Jurkat-NFAT-Luc; SW620-DPB + G12V peptide, 10 µg/ml, 10-fold dilutions, 5 conc.; Emax relative to WT 97%; full-length, on cells
Experimental: as §2

[17] = target: T1, RAS G12V mutant (KRAS G12V) peptide on …; experiment: Jurkat-NFAT-Luc; B13 LCL + G12V peptide, 10 µg/ml, 10-fold dilutions, 5 conc.; Emax relative to WT 256%; full-length, on cells
Experimental: as §1

B1: B13.14.1 TCR mutant α98G-H (TCR, V domains shown)
Valpha: AQSVAQPEDQVNVAEGNPLTVKCTYSVSGNPYLFWYVQYPNRGLQFLLKYITGDNLVKGSYGFEAEFNKSQTSFHLKKPSALVSDSALYFCAVRDGRHGGNKLTFGTGTQLKVEL
Vbeta: DGGITQSPKYLFRKEGQNVTLSCEQNLNHDAMYWYRQDPGQGLRLIYYSQIVNDFQKGDIAEGYSVSREKKESFPLTVTSAQKNPTAFYLCASSPGQRDNSPLHFGNGTRLTVT
EC50 of peptide [1]: 0.52 µg/mL

B3: B13.14.1 TCR mutant α98G-N (TCR, V domains shown)
Valpha: B1 Valpha with H98N
Vbeta: B1 Vbeta
EC50 of peptide [3]: 0.255 µg/mL

B4: B13.14.1 TCR mutant α49K-Y (TCR, V domains shown)
Valpha: B1 Valpha with K49Y, H98G
Vbeta: B1 Vbeta
EC50 of peptide [4]: 0.96 µg/mL | TCR Mut RLU/WT RLU [5]: 119%

B6: B13.14.1 TCR mutant α49K-S (TCR, V domains shown)
Valpha: B1 Valpha with K49S, H98G
Vbeta: B1 Vbeta
EC50 of peptide [7]: 1.21 µg/mL

B9: B13.14.1 TCR mutant α51I-W (TCR, V domains shown)
Valpha: B1 Valpha with I51W, H98G
Vbeta: B1 Vbeta
EC50 of peptide [11]: 1.24 µg/mL | TCR Mut RLU/WT RLU [12]: 129%

B10: B13.14.1 TCR mutant α52T-A (TCR, V domains shown)
Valpha: B1 Valpha with T52A, H98G
Vbeta: B1 Vbeta
EC50 of peptide [13]: 1.56 µg/mL

B11: B13.14.1 TCR mutant α52T-H (TCR, V domains shown)
Valpha: B1 Valpha with T52H, H98G
Vbeta: B1 Vbeta
EC50 of peptide [14]: 1.03 µg/mL

B12: B13.14.1 TCR mutant α98G-S (TCR, V domains shown)
Valpha: B1 Valpha with H98S
Vbeta: B1 Vbeta
EC50 of peptide [15]: 0.075 µg/mL

The remaining lines, values ahead:

EC50 of peptide [2]: 0.123 µg/mL
B2: B13.14.1 TCR mutant β97Q-S (TCR, V domains shown)
Valpha: B1 Valpha with H98G
Vbeta: B1 Vbeta with Q97S

EC50 of peptide [6]: 0.325 µg/mL
B5: B13.14.1 TCR mutant β95P-T (TCR, V domains shown)
Valpha: B1 Valpha with H98G
Vbeta: B1 Vbeta with P95T

EC50 of peptide [8]: 1.34 µg/mL | TCR Mut RLU/WT RLU [9]: 101%
B7: B13.14.1 TCR mutant β50Q-T (TCR, V domains shown)
Valpha: B1 Valpha with H98G
Vbeta: B1 Vbeta with Q50T

EC50 of peptide [10]: 9.51 µg/mL
B8: B13.14.1 TCR mutant β48Y-F (TCR, V domains shown)
Valpha: B1 Valpha with H98G
Vbeta: B1 Vbeta with Y48F

EC50 of peptide [16]: 1.19 µg/mL
B13: B13.14.1 TCR mutant β50Q-N (TCR, V domains shown)
Valpha: B1 Valpha with H98G
Vbeta: B1 Vbeta with Q50N

EC50 of peptide [17]: 0.204 µg/mL
B14: B13.14.1 TCR mutant β95P-A (TCR, V domains shown)
Valpha: B1 Valpha with H98G
Vbeta: B1 Vbeta with P95A
